Patent publication US20080279847A1

Legend:
[1] = molecular target: tumor-associated glycoprotein-72 (TAG-72), used as TAG-72-positive BSM (bovine submaxillary mucin, type-1-S, Sigma) (bovine); assay: competitive ELISA, whole IgG, reference 3E8
[2] = molecular target: tumor-associated glycoprotein-72 (TAG-72), used as TAG-72-positive BSM (bovine submaxillary mucin, type-1-S, Sigma) (bovine); assay: competitive ELISA, whole IgG in COS7 culture supernatant
[3] = molecular target: tumor-associated glycoprotein-72 (TAG-72), used as TAG-72-positive BSM (bovine submaxillary mucin, type-1-S, Sigma) (bovine); assay: competitive ELISA, whole IgG expressed in animal cells, reference 3E8 whole IgG (FIG. 9)

B1: humanized antibody 3E8/BSM22 (whole IgG form) (antibody, V domains shown)
VH: QVQLVQSGAEVKKPGASVKVSCKASGYTFTDHAIHWVRQAPGQRLEWMGYFSPGNDDFKYSQKFQGRVTITADKSASTAYMELSSLRSEDTAVYYCARSWIMQYWGQGTLVTVSS
VL: DIVMTQSPDSLAVSLGERATIHCKSSQSILYSSNNKNYLAWYQQKPGQPPKLLLYWASTREAGVPDRFSGGGSGTDFTLTISSLQPEDSATYYCQQYNTYPLTFGGGTKVEIK
[1]
  fold higher antigen binding affinity than the 3E8 antibody: 1.5 fold
[2]
  Kd: 0.45 nM
[3]
  fold higher antigen binding affinity than the 3E8 antibody: 1.5 fold
